This is an account of results in the RNAGym collection of RNA variant scans (doi:10.7554/elife.90254).

B1: LINE1-full (parent)
chain: UACGUAGGUGGUUUUCCCCUGAUAGUGCUAAGGGGGCCUGGAAGUUUGGACUGGGCAGAGCUCAACACAGCGUGGCAAAGUGGCUGUGGCUAGACUGCCUCUCUGGAUUCCUCGUCACUCAGCAGGGCAUCUCUGAGAGAAAUGCC

The data set covers variants of B1. The experiment in a line: self-cleavage, relative activity (ratio to wild type); higher = more cleavage; in vitro, sequencing; the parent is a self-cleaving ribozyme.
Consider UACGUAGGUGGUUUUCCCCUGAUAGUGCUAAAGGGGCCUGGAAGUUUGGACUGGGCAGAGCUCAACACAGCGUGGCAAAGUGGCUGUGGCUAGACUGCCUCUCUGGAUUCCUCGUCACCCAGCAGGGCAUCUCUGAGAGAAAUGCC, for which the self-cleavage amounted to 1.29.

Turning to UACGUAGGUGGUUUUCCCCUGAUAGUGCUAAUGGGGCCUGGGAGUUUGGACUGGGCAGAGCUCAACACAGCGUGGCAAAGUGGCUGUGGCUAGACUGCCUCUCUGGAUUCCUCGUCACUCAGCAGGGCAUCUCUGAGAGAAAUGCC, the self-cleavage stood at 1.07.

For the variant UACGUAGGUGGUUUUCCCCUGAUAGUGCUAAUGGGGCCUGGAAGUUUGGGCUGGGCAGAGCUCAACACAGCGUGGCAAAGUGGCUGUGGCUAGACUGCCUCUCUGGAUUCCUCGUCACUCAGCAGGGCAUCUCUGAGAGAAAUGCC, the self-cleavage is 0.69.

For UACGUAGGUGGUUUUCCCCUGAUAGUGCUAACGGGGCCUGGAAGCUUGGACUGGGCAGAGCUCAACACAGCGUGGCAAAGUGGCUGUGGCUAGACUGCCUCUCUGGAUUCCUCGUCACUCAGCAGGGCAUCUCUGAGAGAAAUGCC, the self-cleavage was determined as 1.

Take UACGUAGGUGGUUUUCCCCUGAUAGUGCUAACGGGGCCUGGAAGUUUGGACUGGGCAGAGCUCAACACAGCGUGGCAGAGUGGCUGUGGCUAGACUGCCUCUCUGGAUUCCUCGUCACUCAGCAGGGCAUCUCUGAGAGAAAUGCC: the self-cleavage worked out at 0.73.

For the variant UACGUAGGUGGUUUUCCCCUGAUAGUGCUAAUGGGGCCUGGAAGUUUGGACUGGGCAGAGCUCAACACAGCGUGGCAAAGUGGCUGUGGCUAGACUGCCUCUCUGGAUUCCUCGUCACUCUGCAGGGCAUCUCUGAGAGAAAUGCC, the self-cleavage is 0.

For UACGUAGGUGGUUUUCCCCUGAUAGUGCUAACGGAGCCUGGAAGUUUGGACUGGGCAGAGCUCAACACAGCGUGGCAAAGUGGCUGUGGCUAGACUGCCUCUCUGGAUUCCUCGUCACUCAGCAGGGCAUCUCUGAGAGAAAUGCC, the self-cleavage stood at 1.16.

Take UACGUAGGUGGUUUUCCCCUGAUAGUGCUAACGGGGCCUGGAAGUUUGGACUGGGCAGUGCUCAACACAGCGUGGCAAAGUGGCUGUGGCUAGACUGCCUCUCUGGAUUCCUCGUCACUCAGCAGGGCAUCUCUGAGAGAAAUGCC: the self-cleavage worked out at 0.78.

As for UACGUAGGUGGUUUUCCCCUGAUAGUGCUAAUGGGGCCUGGAAGUUUGGACUGGGCAGAGCUCAACACAGCGUGGCAAAGUGUCUGUGGCUAGACUGCCUCUCUGGAUUCCUCGUCACUCAGCAGGGCAUCUCUGAGAGAAAUGCC, the self-cleavage is 0.6.

For the variant UACGUAGGUGGUUUUCCCCUGAUAGUGCUAAUGGGGCCUGGAAGUUUGGACUGGGCAGAGCUCAACACAGCGUGGCAAAGUGGCUGUGGCUAGACUGCCUCUCUGGAUUCCUCGUCACUCAGCAGGGCAACUCUGAGAGAAAUGCC, the self-cleavage came out at 1.7.

Take UACGUAGGUGGUUUUCCCCUGAUAGUGCUAAUGGGGCCUGGAAGUUUGGACUGGGCAGAGCCCAACACAGCGUGGCAAAGUGGCUGUGGCUAGACUGCCUCUCUGGAUUCCUCGUCACUCAGCAGGGCAUCUCUGAGAGAAAUGCC: the self-cleavage was found to be 0.06.

UACGUAGGUGGUUUUCCCCUGAUAGUGCUAAUGGGGCCUGGAAGUUUGGACUGGGCAGAGCUCAACACAGCGUGGCAAAGUGGCUGUGGCUAGACUGCCUCUCUGGAUUCCUCGUUACUCAGCAGGGCAUCUCUGAGAGAAAUGCC: the self-cleavage amounted to 1.15.

Regarding UACGUAGGUGGUUUUCCCCUGAUAGUGCUAAUGGGGCCUGGAAGUUUGGACUGGGCAGAGCUCAACACAGCGUGGCAAAGUGGCUGUGGCUAGACUGCCUCUCUGGAUUCCUCGUCACACAGCAGGGCAUCUCUGAGAGAAAUGCC, the self-cleavage was 0.

For the variant UACGUAGGUGGUUUUCCCCUGAUAGUGCUAACGGGGCCUGGAAGUUUGGACUGGGCAGAGCUCAACACAGCGUGGCAAAGUGGCUGUGGCUAGACUGCCUCUCUGGAUUCCUCGCCACUCAGCAGGGCAUCUCUGAGAGAAAUGCC, the self-cleavage was found to be 1.56.

Regarding UACGUAGGUGGUUUUCCCCUGAUAGUGCUAAUGGGGCCUGGAAGUUUGGACUGGGCAGAGCUCAACACAGCGUGGCAAGGUGGCUGUGGCUAGACUGCCUCUCUGGAUUCCUCGUCACUCAGCAGGGCAUCUCUGAGAGAAAUGCC, the self-cleavage was 0.97.

For UACGUAGGUGGUUUUCCCCUGAUAGUGCUAAUGGGGCCUGGAAGUUUGGACUGGGCAGAGCUCAACACAGCGUGGCAGAGUGGCUGUGGCUAGACUGCCUCUCUGGAUUCCUCGUCACUCAGCAGGGCAUCUCUGAGAGAAAUGCC, the self-cleavage was 0.94.

Take UACGUAGGUGGUUUUCCCCUGAUAGUGCUAAUGGGGCCUGGAAGUUUGGACUGGGCAGAGCUCAACACAGCGUGGCGAAGUGGCUGUGGCUAGACUGCCUCUCUGGAUUCCUCGUCACUCAGCAGGGCAUCUCUGAGAGAAAUGCC: the self-cleavage is 3.

As for UACGUAGGUGGUUUUCCCCUGAUAGUGCUAAUGGGGCCUGGAAGUUUGGACUGGGCAGAGCUCAACACAGCGUGGCCAAGUGGCUGUGGCUAGACUGCCUCUCUGGAUUCCUCGUCACUCAGCAGGGCAUCUCUGAGAGAAAUGCC, the self-cleavage was determined as 1.31.

With UACGUAGGUGGUUUUCCCCUGAUAGUGCUAACGGGGCCUGGAAGUUUGGACUGGGCAGAGCUCAACACAGCGUGGCAAAGUGGCUGUGGCUAGACUGCCUCUCUGGAUUCCUCGUCACUCAGCAGGGCAUCUCUGAGAGAAGUGCC, the self-cleavage was 1.58.

UACGUAGGUGGUUUUCCCCUGAUAGUGCUAAAGGGGCCUGGAAGUUUGGACUGGGCAGAGCUCAACACAGCGUGGCAAAGUGGCUGUGGCUAGACUGCCUCUCUGGAUUCCUCGUCACUCAGCAGGGCAUCUCCGAGAGAAAUGCC: the self-cleavage turned out to be 1.22.

UACGUAGGUGGUUUUCCCCUGAUAGUGCUAAUGGGGCCUGGAAGUUUGGACUGGGCAGAGCUCAACACAGCGUGGCAAAGUGGCCGUGGCUAGACUGCCUCUCUGGAUUCCUCGUCACUCAGCAGGGCAUCUCUGAGAGAAAUGCC: the self-cleavage is 0.17.

Regarding UACGUAGGUGGUUUUCCCCUGAUAGUGCUAAUGGGGCCUGGAAGUUUGGACUGGGCAGAGCUCAACACAGCGUGGCAAAGUGGCAGUGGCUAGACUGCCUCUCUGGAUUCCUCGUCACUCAGCAGGGCAUCUCUGAGAGAAAUGCC, the self-cleavage was determined as 0.09.

On to UACGUAGGUGGUUUUCCCCUGAUAGUGCUAACGGGGCCUGGAAGUUUGGACUGGGCAGAGCUCAACACAGCGUGGCAAAGAGGCUGUGGCUAGACUGCCUCUCUGGAUUCCUCGUCACUCAGCAGGGCAUCUCUGAGAGAAAUGCC, for which the self-cleavage came out at 1.9.

Consider UACGUAGGUGGUUUUCCCCUGAUAGUGCUAACGGGGCCUGGAAGUUUGGACUGGGCAGAGCUCAACACAGCGUGGCAAAGCGGCUGUGGCUAGACUGCCUCUCUGGAUUCCUCGUCACUCAGCAGGGCAUCUCUGAGAGAAAUGCC, for which the self-cleavage was determined as 0.55.

For the variant UACGUAGGUGGUUUUCCCCUGAUAGUGCUAACGGGGCCUGGAAGUUUGGACUGGGCAGAGCUCAACACAGCGUGGCAAAGUGGCUGUGGCUAGACUGCCCCUCUGGAUUCCUCGUCACUCAGCAGGGCAUCUCUGAGAGAAAUGCC, the self-cleavage was 2.13.

For the variant UACGUAGGUGGUUUUCCCCUGAUAGUGCUAAUGGGGCCUGGAAGUUUGGACUGGGCAGAGCUCAACACAGCGCGGCAAAGUGGCUGUGGCUAGACUGCCUCUCUGGAUUCCUCGUCACUCAGCAGGGCAUCUCUGAGAGAAAUGCC, the self-cleavage is 1.1.

For UACGUAGGUGGUUUUCCCCUGAUAGUGCUAAUGGGGCCAGGAAGUUUGGACUGGGCAGAGCUCAACACAGCGUGGCAAAGUGGCUGUGGCUAGACUGCCUCUCUGGAUUCCUCGUCACUCAGCAGGGCAUCUCUGAGAGAAAUGCC, the self-cleavage amounted to 1.06.

Turning to UACGUAGGUGGUUUUCCCCUGAUAGUGCUAAUGGGGCCUGGAAGUUUGGACUGGGCAGAGCUCAACACAGCGUGGCAAAGUGGCUGUGGCUAGACUGCCUCUCUGGAUUCCUCGUCGCUCAGCAGGGCAUCUCUGAGAGAAAUGCC, the self-cleavage came out at 1.13.

Turning to UACGUAGGUGGUUUUCCCCUGAUAGUGCUAAUGGGGCCUGGAAGUUUGGACAGGGCAGAGCUCAACACAGCGUGGCAAAGUGGCUGUGGCUAGACUGCCUCUCUGGAUUCCUCGUCACUCAGCAGGGCAUCUCUGAGAGAAAUGCC, the self-cleavage was found to be 1.85.

Take UACGUAGGUGGUUUUCCCCUGAUAGUGCUAAAGGGGCCUGGAAGUUUGGACUGGGCAGAGCUCAACACAGCGUGGCAAAGUGGCUGUGGCUAGACUGCCUCUCUGGAUUCCUCGUCACUCAGCAGGGCAUCUCUGAGAGAAACGCC: the self-cleavage was found to be 1.4.

For UACGUAGGUGGUUUUCCCCUGAUAGUGCUAACGGGGCCUGGAAGUUUGGACUGGGCAGAGCUCAACACAGCGUGGCAAAGUGGCUGUGGCUAGACUGCCUCUCUGGAUUCCUCGUCACUCAGCAGGGCAUCUCUGAGAGAAAUGCC, the self-cleavage is 1.23.

UACGUAGGUGGUUUUCCCCUGAUAGUGCUAAUGGGGCCUGGAAGUUUGGACUGGGCAGAGCUCAACACAGCGUGGCAAAGUGGCUGUGGCUAGACUGCCUCUCUGGAUUCCUCGUCACUCAGCAGGGCAUCUCUGAGAGAAAUGCC: the self-cleavage was determined as 0.98.

Consider UACGUAGGUGGUUUUCCCCUGAUAGUGCUAACGGGGCCUGGAAGUUUGGACUGGGCAGAGCUCAACACAGCGUGGCAAAGUGGCUGUGGCUAGACUGCCUCUCUGGAUUCCUCGUCACUCAGCAGGGCAUCUCUGAGAGAGAUGCC, for which the self-cleavage was found to be 1.99.

As for UACGUAGGUGGUUUUCCCCUGAUAGUGCUAAUGGGGCCUGGAAGUUUGGACUGGGCAGAGCUCAACACAGCGUGGCAAAGUGGCUGUGGCUAGGCUGCCUCUCUGGAUUCCUCGUCACUCAGCAGGGCAUCUCUGAGAGAAAUGCC, the self-cleavage was 0.2.

Turning to UACGUAGGUGGUUUUCCCCUGAUAGUGCUAACGGGGCCUGGAAGUUUGGACUGGGCAGAGCUCAACACAGCGUGGCAAAGUGGCUGUGGCUAGACUGCCUCUCUGGACUCCUCGUCACUCAGCAGGGCAUCUCUGAGAGAAAUGCC, the self-cleavage was 1.55.

On to UACGUAGGUGGUUUUCCCCUGAUAGUGCUAAUGGGGCCUGGAAGUUUGGACUGGGCAGAGCUCAACACAGCGUGGCAAAGUGGCUGUGGCUAGACUGCCUCCCUGGAUUCCUCGUCACUCAGCAGGGCAUCUCUGAGAGAAAUGCC, for which the self-cleavage turned out to be 1.13.

With UACGUAGGUGGUUUUCCCCUGAUAGUGCUAACGGGGCCUGGAAGUUUGGACUGGGCAGAGCUCAACACAGCGUGGCUAAGUGGCUGUGGCUAGACUGCCUCUCUGGAUUCCUCGUCACUCAGCAGGGCAUCUCUGAGAGAAAUGCC, the self-cleavage was 0.81.

UACGUAGGUGGUUUUCCCCUGAUAGUGCUAACGGGGCCUGGAAGUUUGGACUGGGCAGAUCUCAACACAGCGUGGCAAAGUGGCUGUGGCUAGACUGCCUCUCUGGAUUCCUCGUCACUCAGCAGGGCAUCUCUGAGAGAAAUGCC: the self-cleavage amounted to 0.02.

On to UACGUAGGUGGUUUUCCCCUGAUAGUGCUAAAGGGGCCUGGAAGUUUGGACUGGGCAGAGCUCAACACAGCGUGGCAAAGUGGCUGUGGCUAGACUGCCUCUCUGGAUUCCUCGUCACUCAGCAGGGCAUCCCUGAGAGAAAUGCC, for which the self-cleavage came out at 2.03.
